Where two headings read alike, the source gives them in different places.

In assay [1] the target is T1, sEGFR-MMB (dimeric sEGFR mimetibody) (human).
T1 construct: Disulfide linked homodimer, expressed in 293E cells; also called sEGFR-Fc
Description: phage ELISA on coated sEGFR-MMB, chemiluminescence (background typically <200 units). (An ELISA detects its analyte on a solid surface through an enzyme-linked reagent.)

The target in assay [2] is T1, sEGFR-MMB (dimeric sEGFR mimetibody). Described as above. This is another data set of the same source.
The target is the same in assay [3]. The assay is described as above. This is another data set of the same source.
The target is the same in assay [4]. Described as above. This is another data set of the same source.
For the next assay, the target named is T2, biotinylated sEGFR-His6 (human, UniProt P00533 25-645, biotinylated (reagent and sites not stated)).
T2 construct: Captured on streptavidin in the ELISA; also called b-sEGFR-His; b-sEGFR-His6
The assay can be described thus: phage ELISA, luminescence; biotinylated receptor captured on streptavidin [panel C].

Assay [5] addresses T3, Control-MMB (CNTO 360) (Homo sapiens (Human), UniProt P0DOX5 111-449 = IgG part).
T3 construct: Described as human IgG1 heavy chain dimer absent the variable and most of the CH1 domains; also called blank mimetibody scaffold protein
Description: phage ELISA, luminescence; Control-MMB coated on the wells [panel A].

In a further assay the target is Streptavidin alone. Description: phage ELISA, luminescence; streptavidin-coated wells without receptor [panel C].
Assay [6] deals with T1, sEGFR-MMB (dimeric sEGFR mimetibody). Description: phage ELISA on coated sEGFR-MMB, chemiluminescence (background typically <200 units). The source holds these as a separate data set.
Assay [7] has the same target. Description: ELISA, luminescence; sEGFR-MMB immobilized, MMB titrated.
For assay [8], the target named is T4, Human extracellular EGFR-His6 (sEGFR-His6) (human, UniProt P00533 25-645).
T4 construct: Monomer, expressed in HEK293E cells, glycosylated; also called sEGFR-6×His; monomeric sEGFR
Description: phage ELISA, coated sEGFR-His6.

For assay [9], the target named is T3, Control-MMB (CNTO 360). Description: phage ELISA, protein coated at 5 ug per mL.
Assay [10] has as its target T4, Human extracellular EGFR-His6 …. The assay can be described thus: phage ELISA, protein coated at 5 ug per mL, chemiluminescence.
Assay [11] has as its target T1, sEGFR-MMB (dimeric sEGFR mimetibody). The description is as above.

T1 sequence (chain, as listed by the source limits assumed): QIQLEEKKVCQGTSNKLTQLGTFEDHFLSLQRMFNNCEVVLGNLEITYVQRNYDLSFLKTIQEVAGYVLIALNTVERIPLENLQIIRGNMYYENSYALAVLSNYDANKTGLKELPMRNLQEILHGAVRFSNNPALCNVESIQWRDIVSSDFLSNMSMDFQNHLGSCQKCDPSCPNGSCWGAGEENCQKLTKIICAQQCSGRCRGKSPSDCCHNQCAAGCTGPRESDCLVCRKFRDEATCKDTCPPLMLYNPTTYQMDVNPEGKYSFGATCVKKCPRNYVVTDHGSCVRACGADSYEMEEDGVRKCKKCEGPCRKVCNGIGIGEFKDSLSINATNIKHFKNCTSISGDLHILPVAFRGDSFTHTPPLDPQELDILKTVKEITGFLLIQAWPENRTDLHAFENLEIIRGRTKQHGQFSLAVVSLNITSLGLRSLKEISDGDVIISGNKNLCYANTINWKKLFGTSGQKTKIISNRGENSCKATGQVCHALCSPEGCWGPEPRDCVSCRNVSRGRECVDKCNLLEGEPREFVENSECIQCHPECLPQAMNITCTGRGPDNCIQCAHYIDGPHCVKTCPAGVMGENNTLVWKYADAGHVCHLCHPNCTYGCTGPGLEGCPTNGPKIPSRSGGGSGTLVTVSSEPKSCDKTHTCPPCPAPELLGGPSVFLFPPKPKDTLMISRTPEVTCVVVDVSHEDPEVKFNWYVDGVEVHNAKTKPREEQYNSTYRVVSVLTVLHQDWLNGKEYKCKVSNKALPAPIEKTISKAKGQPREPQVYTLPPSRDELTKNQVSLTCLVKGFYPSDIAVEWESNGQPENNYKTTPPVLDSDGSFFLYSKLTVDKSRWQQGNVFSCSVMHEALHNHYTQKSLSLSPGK

B1: SEQ ID NO: 26 (S18 hit, pIX phage) (peptide)
chain: GGGKHCILFEKTVYCAKGGGSGGSGG
notes: pIX phagemid display; not shown: M13 phage coat protein pIX (MSVL...)
In assay [1], B1 yielded an ELISA signal of 9110 units.

B2: SEQ ID NO: 11 (S15 hit, pIX phage) (peptide)
chain: GGGELGLPTLLCWPTDTLGGGSGGSGG
notes: as for B1
As for B2, the ELISA signal in assay [2] amounted to 9380 units.

B3: SEQ ID NO: 45 (S20 hit, pIX phage) (peptide)
chain: GGGDSCCSFLTDGTVVCSLGGGSGGSGG
notes: as for B1
B3 registered an ELISA signal in assay [3] of 9540 units.

B4: SEQ ID NO: 21 (S15 hit, pIX phage) (peptide)
chain: GGGLPDLICAVDSGTSGAGGGSGGSGG
notes: as for B1
In [2], B4 displayed an ELISA signal of 1160 units.

B5: SEQ ID NO: 14 (S15 hit, pIX phage) (peptide)
chain: GGGHVSLQSLPELICVVSGGGSGGSGG
notes: as for B1
In assay [2], B5 registered an ELISA signal of 1360 units.

B6: SEQ ID NO: 47 (S20 hit, pIX phage) (peptide)
chain: GGGSVCVGTAFPGWMVCGPGGGSGGSGG
notes: as for B1
In the case of B6, the ELISA signal in [3] stood at 4770 units.

B7: SEQ ID NO: 41 (S19 hit, pIX phage) (peptide)
chain: GGGCDCREAVSASLVCRYGGGSGGSGG
notes: as for B1
Turning to B7, in assay [4], the ELISA signal amounted to 3350 units.

B8: P173 phage (S18, pIX) (peptide)
chain: GGGTDCVIFGLETYCLRGGGSGGSGG
notes: pIX phagemid display; also called PP173; not shown: M13 phage coat protein pIX (MSVL...)
In assay [1], B8 yielded an ELISA signal of 37900 units.

B9: SEQ ID NO: 10 (S15 hit, pIX phage) (peptide)
chain: GGGYRLFVDESIFFCTRLGGGSGGSGG
notes: as for B1
In turn, B9 showed an ELISA signal in assay [2] of 3080 units.

B10: SEQ ID NO: 25 (S18 hit, pIX phage) (peptide)
chain: GGGRDCIIFDKTVYCVIGGGSGGSGG
notes: as for B1
In [1], B10 yielded an ELISA signal of 17100 units.

B11: SEQ ID NO: 23 (S18 hit, pIX phage) (peptide)
chain: GGGAGCIAFVDVVYCARGGGSGGSGG
notes: as for B1
The molecule B11 returned an ELISA signal in assay [1] of 6380 units.

B12: SEQ ID NO: 40 (S19 hit, pIX phage) (peptide)
chain: GGGAFCRLDFNQWLTCLVGGGSGGSGG
notes: as for B1
Regarding B12, the ELISA signal in assay [4] is 2580 units.

B13: SEQ ID NO: 16 (S15 hit, pIX phage) (peptide)
chain: GGGSTITSLPTLQCWPILGGGSGGSGG
notes: as for B1
The molecule B13 registered an ELISA signal in [2] of 13300 units.

B14: SEQ ID NO: 24 (S18 hit, pIX phage) (peptide)
chain: GGGAKCIAFGNSVYCLNGGGSGGSGG
notes: as for B1
Consider B14, for which the ELISA signal in assay [1] stood at 31500 units.

B15: SEQ ID NO: 49 (S20 hit, pIX phage) (peptide)
chain: GGGLLCATTSFRDWFVCFTGGGSGGSGG
notes: as for B1
Consider B15, for which, in [3], the ELISA signal is 4510 units.

B16: SEQ ID NO: 32 (S18 hit, pIX phage) (peptide)
chain: GGGSDCVLFGSKLFCSAGGGSGGSGG
notes: as for B1
Consider B16, for which the ELISA signal in assay [1] was 35300 units.

B17: P175 phage (S15, pIX) (peptide)
chain: GGGLPDDSLPELICKVRGGGGSGGSGG
notes: pIX phagemid display; also called PP175; not shown: M13 phage coat protein pIX (MSVL...)
As for B17, the ELISA signal in assay [2] came out at 6790 units. The binding result in the assay with biotinylated sEGFR-His6, in the assay with Control-MMB (CNTO 360) [5] and with Streptavidin alone was “no binding” each time.

B18: P180 phage (S19, pIX) (peptide)
chain: GGGMICYLVDSGNIICYKGGGSGGSGG
notes: pIX phagemid display; also called PP180; not shown: M13 phage coat protein pIX (MSVL...)
Turning to B18, the ELISA signal in assay [4] was 8810 units.

B19: SEQ ID NO: 30 (S18 hit, pIX phage) (peptide)
chain: GGGAYCSFVAGDLVCQVGGGSGGSGG
notes: as for B1
With B19, in assay [1], the ELISA signal is 19800 units.

B20: SEQ ID NO: 27 (S18 hit, pIX phage) (peptide)
chain: GGGDSCIQFANLLYCAIGGGSGGSGG
notes: as for B1
Consider B20, for which, in [1], the ELISA signal stood at 53200 units.

B21: SEQ ID NO: 17 (S15 hit, pIX phage) (peptide)
chain: GGGPIDDESLPVLYCVTSGGGSGGSGG
notes: as for B1
As for B21, in assay [2], the ELISA signal came out at 1780 units.

B22: SEQ ID NO: 19 (S15 hit, pIX phage) (peptide)
chain: GGGGADTLPDLLCWESSLGGGSGGSGG
notes: as for B1
The molecule B22 had an ELISA signal in assay [2] of 5720 units.

B23: P177 phage (S16, pIX) (peptide)
chain: GGGDACTMVFLWCSLGGGSGGSGG
notes: pIX phagemid display; also called PP177; not shown: M13 phage coat protein pIX (MSVL...)
B23 registered an ELISA signal in assay [6] of 8660 units.

B24: P178 phage (S17, pIX) (peptide)
chain: GGGRWCYFWWITICELGGGSGGSGG
notes: pIX phagemid display; also called PP178; not shown: M13 phage coat protein pIX (MSVL...)
With B24, in [6], the ELISA signal is 7910 units.

B25: SEQ ID NO: 34 (S18 hit, pIX phage) (peptide)
chain: GGGYDCVSFGAVAYCPQGGGSGGSGG
notes: as for B1
B25: the ELISA signal in [1] is 3200 units.

B26: P190-MMB construct 4314 (Fc fusion)
chain: GGDPCTWEVWGRECLQGGGSCPPCPAPEAAGGPSVFLFPPKPKDTLMISRTPEVTCVVVDVSQEDPEVQFNWYVDGVEVHNAKTKPREEQFNSTYRVVSVLTVLHQDWLNGKEYKCKVSNKGLPSSIEKTISKAKGQPREPQVYTLPPSQEEMTKNQVSLTCLVKGFYPSDIAVEWESNGQPENNYKTTPPVLDSDGSFFLYSRLTVDKSRWQEGNVFSCSVMHEALHNHYTQKSLSLSLGK
notes: GG, P190, Flex, human IgG4 hinge-CH2-CH3 with two Leu to Ala changes
For the molecule B26, the binding result in assay [7] was “binds”.

B27: SEQ ID NO: 33 (S18 hit, pIX phage) (peptide)
chain: GGGTDCVRFGETIYCIVGGGSGGSGG
notes: as for B1
The molecule B27 came in with an ELISA signal in [1] of 13300 units.

B28: SEQ ID NO: 44 (S20 hit, pIX phage) (peptide)
chain: GGGWMCFLEGYGASLMCQCGGGSGGSGG
notes: as for B1
Take B28: the ELISA signal in assay [3] was found to be 4800 units.

B29: SEQ ID NO: 28 (S18 hit, pIX phage) (peptide)
chain: GGGTDCIRFGVLWYCLVGGGSGGSGG
notes: as for B1
As to B29, in [1], the ELISA signal is 4750 units.

B30: SEQ ID NO: 29 (S18 hit, pIX phage) (peptide)
chain: GGGRACITFGKVVYCEVGGGSGGSGG
notes: as for B1
In the case of B30, the ELISA signal in assay [1] stood at 30700 units.

B31: SEQ ID NO: 15 (S15 hit, pIX phage) (peptide)
chain: GGGNWFSLPTLLCFPLNPGGGSGGSGG
notes: as for B1
In turn, B31 came in with an ELISA signal in [2] of 3670 units.

B32: P190 phage, pIX display (190-phagemid) (peptide)
chain: GGGDPCTWEVWGRECLQGGGSGGSGG
notes: pIX phagemid display, on average one peptide per phage particle; also called PHPEP190; pIX-190; not shown: M13 phage coat protein pIX (MSVL...)
B32: the binding result (in [8]; in the assay with Control-MMB (CNTO 360) [9]) was “no binding” throughout. Moreover, the “Relative Signal” value in [10] amounted to 6; in assay [11], 3940.

B33: SEQ ID NO: 35 (S18 hit, pIX phage) (peptide)
chain: GGGRGCVVFGDNIYCIVGGGSGGSGG
notes: as for B1
B33: the ELISA signal in assay [1] was found to be 22000 units.

B34: SEQ ID NO: 46 (S20 hit, pIX phage) (peptide)
chain: GGGYICTPSDIDSWYICYLGGGSGGSGG
notes: as for B1
On to B34, for which the ELISA signal in assay [3] worked out at 6620 units.

B35: SEQ ID NO: 38 (S19 hit, pIX phage) (peptide)
chain: GGGYDCMIRADGSLICWCGGGSGGSGG
notes: as for B1
Regarding B35, in assay [4], the ELISA signal was found to be 1290 units.

B36: SEQ ID NO: 12 (S15 hit, pIX phage) (peptide)
chain: GGGVSGILPILVCHPAATGGGSGGSGG
notes: as for B1
B36: the ELISA signal in assay [2] amounted to 1110 units.

B37: SEQ ID NO: 43 (S20 hit, pIX phage) (peptide)
chain: GGGPTCDSATRRVLTICADGGGSGGSGG
notes: as for B1
In [3], B37 showed an ELISA signal of 5420 units.

B38: SEQ ID NO: 20 (S15 hit, pIX phage) (peptide)
chain: GGGTVFTLPELVCVVAGTGGGSGGSGG
notes: as for B1
B38 displayed an ELISA signal in assay [2] of 1520 units.

B39: P179 phage (S19, pIX) (peptide)
chain: GGGGPCVLIRDYYLLCLEGGGSGGSGG
notes: pIX phagemid display; also called PP179; not shown: M13 phage coat protein pIX (MSVL...)
In the case of B39, in [4], the ELISA signal is 14000 units. The binding result with Control-MMB (CNTO 360) [5] and with Streptavidin alone was “no binding” each time.

B40: SEQ ID NO: 18 (S15 hit, pIX phage) (peptide)
chain: GGGPIFSSLPVLYCTSQLGGGSGGSGG
notes: as for B1
In [2], B40 showed an ELISA signal of 1420 units.

The record behind these values is patent publication US20100098681A1 (Janssen / Centocor, published 2010).
